The source of these data is EP4740958A1 (QILU PHARMACEUTICAL CO., LTD., dated 2026).

In this assay the target is T1, recombinant human CCR8 protein (human, UniProt P51685 1-355, limits assumed).
T1 construct: Recombinant protein fixed on a CM5 chip by amino coupling (about 15 RU); also called human CCR8 recombinant protein
Description: SPR (Biacore 8K), CCR8 fixed on CM5 chip by amino coupling, antibody 1 nM-31.25 pM as analyte, 1:1 model.

T1 sequence (P51685 whole entry): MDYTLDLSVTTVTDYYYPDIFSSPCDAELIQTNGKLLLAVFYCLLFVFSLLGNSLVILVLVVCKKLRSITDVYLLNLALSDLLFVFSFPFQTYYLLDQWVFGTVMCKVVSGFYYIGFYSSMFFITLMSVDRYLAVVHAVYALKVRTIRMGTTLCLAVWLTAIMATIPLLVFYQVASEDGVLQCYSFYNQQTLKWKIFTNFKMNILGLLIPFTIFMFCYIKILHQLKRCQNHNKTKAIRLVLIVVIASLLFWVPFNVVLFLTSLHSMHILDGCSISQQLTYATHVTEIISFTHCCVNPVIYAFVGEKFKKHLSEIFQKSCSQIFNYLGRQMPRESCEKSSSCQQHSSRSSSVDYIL

B1: anti-human CCR8 monoclonal antibody J06 (antibody, human IgG1, kappa, V domains shown)
VH: EVQLVESGGGVVQPGRSLRLSCAASGFPFEPFAMNWVRQAPGKGLEWVARIRSKANNYATYYADSVKDRFAISRDNSKRTLYLLMHSLRFEDTAVYYCVRGRENNYGYAMDYWGQGTTVTVSS
VL: DVVMTQSPPSLPVTLGQSASISCRSSQSLLHSNGITYLYWFLQRPGQSPRLLIYRMSNLASGVPDRFSGSGSGTDFTLRISRVEAEDVGVYYCMQHLTYPFTFGIGTKVEIKR
notes: also called J06 preparation; anti-CCR8 Mab 1187
Turning to B1, the Kd (as a rule, the equilibrium constant for the complex coming apart) was 7.77 pM; the koff – broadly, the first-order rate constant of dissociation – was 0.000131 s⁻¹; the kon (in general, a measure of how fast the partners come together) stood at 1.69e+07 M⁻¹ s⁻¹.
